The values below come from patent US20110236900, “NOVEL MUTS PROTEIN AND METHOD FOR DETERMING MUTATION USING THE SAME” (RIKEN, published 2011).

Where a chain is given by its changes, count along the chain named.

Data set [1] deals with T1, Aac MutS (Alicyclobacillus acidocaldarius subsp. acidocaldarius JCM5260).
T1 sequence: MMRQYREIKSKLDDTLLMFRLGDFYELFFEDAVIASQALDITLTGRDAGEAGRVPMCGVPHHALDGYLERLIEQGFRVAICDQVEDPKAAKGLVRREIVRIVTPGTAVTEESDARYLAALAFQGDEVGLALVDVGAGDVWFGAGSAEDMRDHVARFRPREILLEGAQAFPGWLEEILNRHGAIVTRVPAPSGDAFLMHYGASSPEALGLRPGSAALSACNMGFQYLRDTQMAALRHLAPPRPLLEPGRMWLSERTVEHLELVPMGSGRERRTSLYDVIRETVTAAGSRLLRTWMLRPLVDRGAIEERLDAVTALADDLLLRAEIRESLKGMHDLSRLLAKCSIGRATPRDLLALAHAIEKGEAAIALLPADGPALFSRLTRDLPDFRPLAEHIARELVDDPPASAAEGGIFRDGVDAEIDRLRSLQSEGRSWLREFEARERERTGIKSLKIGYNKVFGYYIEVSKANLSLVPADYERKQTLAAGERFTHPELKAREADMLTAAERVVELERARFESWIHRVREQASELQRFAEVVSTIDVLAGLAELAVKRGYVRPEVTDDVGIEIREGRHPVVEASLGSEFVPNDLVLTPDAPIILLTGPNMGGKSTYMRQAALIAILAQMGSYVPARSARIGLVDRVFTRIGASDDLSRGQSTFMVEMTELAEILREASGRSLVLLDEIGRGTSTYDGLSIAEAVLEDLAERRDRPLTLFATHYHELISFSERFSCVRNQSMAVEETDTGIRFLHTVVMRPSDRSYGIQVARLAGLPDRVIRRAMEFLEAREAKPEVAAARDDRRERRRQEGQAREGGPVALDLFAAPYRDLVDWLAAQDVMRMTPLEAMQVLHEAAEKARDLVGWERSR
Kind of data set: SPR. The note with it: 20 mM MgCl2.

In data set [2] the target is T2, Taq MutS (Thermus aquaticus, UniProt Q56215 Q56215:1-811).
T2 sequence: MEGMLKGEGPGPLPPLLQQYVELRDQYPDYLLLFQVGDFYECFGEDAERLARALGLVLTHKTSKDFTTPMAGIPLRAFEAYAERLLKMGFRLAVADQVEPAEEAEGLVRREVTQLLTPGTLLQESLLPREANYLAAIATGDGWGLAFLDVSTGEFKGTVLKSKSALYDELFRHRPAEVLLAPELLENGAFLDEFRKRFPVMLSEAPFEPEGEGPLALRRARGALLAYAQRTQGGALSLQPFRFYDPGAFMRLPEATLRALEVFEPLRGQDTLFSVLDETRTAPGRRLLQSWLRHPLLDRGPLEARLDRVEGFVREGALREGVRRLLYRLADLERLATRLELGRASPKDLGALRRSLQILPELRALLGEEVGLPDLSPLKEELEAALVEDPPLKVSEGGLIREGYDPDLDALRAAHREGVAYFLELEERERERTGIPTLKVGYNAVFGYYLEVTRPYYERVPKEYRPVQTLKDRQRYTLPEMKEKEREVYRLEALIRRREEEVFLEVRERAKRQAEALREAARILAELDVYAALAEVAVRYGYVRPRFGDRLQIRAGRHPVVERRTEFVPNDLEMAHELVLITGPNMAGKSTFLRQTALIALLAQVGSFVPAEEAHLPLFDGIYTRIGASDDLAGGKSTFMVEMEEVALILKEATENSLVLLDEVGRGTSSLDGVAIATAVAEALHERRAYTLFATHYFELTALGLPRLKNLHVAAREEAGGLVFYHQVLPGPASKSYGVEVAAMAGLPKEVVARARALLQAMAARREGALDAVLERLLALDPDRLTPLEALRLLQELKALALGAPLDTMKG
Kind of data set: SPR; Comp. Ex. 1; no nucleotide, 20 mM MgCl2, 50 mM KCl, pH 7.6. The note with it: label: 5'-biotin on T-strand; single G-T mismatch. How it is done:
(§1) The chip was set in BIACORE3000, then the running buffer was passed through a channel of the chip at a flow rate of 10 μL/min, and an experiment was started as follows. First, 5 μmol/L C-strand DNA, 5 μmol/L T-strand DNA, and 5 μmol/L Del-strand DNA as regands were passed through the respective three flow cells contained in the chip at a flow rate of 10 μL/min, and they were bound to each other until the Resonance Unit reached about 150 RU (Resonance Unit). Subsequently, 5 μmol/L of the G-strand DNA was injected into each of the flow cells at a flow rate of 20 μL/min for 2 minutes, and thereafter, the flow cells were washed with the running buffer for 10 minutes. Thus, double-stranded DNAs between the C-strand DNA and the G-strand DNA, between T-strand DNA and the same, and between the Del-strand DNA and the same were formed. Then, an Aac MutS solution with the predetermined concentration (0.1, 0.2, 0.5, 1, 2, or 4 μmol/L) was injected into each of the flow cells at a flow rate of 20 μL/min for 10 minutes, and thereafter, the flow cells were washed with the running buffer for 20 minutes. While injecting and washing, signal intensity was measured from the start of the injection of the Aac MutS. In Comparative Example 1, signal intensity was measured by the same treatment as that of Example 2 using Taq MutS derived from Thermus aquatieus as substitute for the Aac MutS.

Data set [3] deals with T3, Aac MutS (Alicyclobacillus acidocaldarius subsp. …).
T3 chain: T1 sequence
The data set can be described thus: SPR; Example 2; no nucleotide, 20 mM MgCl2, 50 mM KCl, pH 7.6. Conditions: tags: none stated (pET17b, E. coli BL21-CodonPlus(DE3)RIL); chain copies: 2 stated; label: 5'-biotin on T-strand; single G-T mismatch. How it is done: as §1

Data set [4] deals with T3, Aac MutS. The data set can be described thus: SPR; Example 3-1; 1 mM ADP, 20 mM MgCl2, 50 mM KCl, pH 7.6. Conditions: tags: none stated (pET17b, E. coli BL21-CodonPlus(DE3)RIL); chain copies: 2 stated; label: 5'-biotin on T-strand; single G-T mismatch. How it is done: as §1, with “Then, an Aac MutS solution with the predetermined concentration (0.1, 0.2, 0.5, 1, 2, or 4 μmol/L) was injected into each of the flow cells at a flow rate of 20 μL/min for 10 minutes, and thereafter, the flow cells were washed with the running buffer for 20 minutes.” left out
(§2) The signal intensity was measured in the same manner as in Example 2 except that 1 mmol/L ADP or ATP was added to the running buffer of Example 2. […] In Comparative Example 2, the signal intensity was measured using the Taq MutS in the same manner as in Example 3. […]

Data set [5] deals with T2, Taq MutS. The data set can be described thus: SPR; Comp. Ex. 2-1; 1 mM ADP, 20 mM MgCl2. How it is done: as §1, with “Then, an Aac MutS solution with the predetermined concentration (0.1, 0.2, 0.5, 1, 2, or 4 μmol/L) was injected into each of the flow cells at a flow rate of 20 μL/min for 10 minutes, and thereafter, the flow cells were washed with the running buffer for 20 minutes.” left out
as §2

Data set [6] addresses T2, Taq MutS. The data set can be described thus: SPR; Comp. Ex. 1; no nucleotide, 20 mM MgCl2. The note with it: label: 5'-biotin on C-strand. How it is done:
as §1

For “CCGCTGAATTGCACCGAGCTCGATCCTCGATGATCCTAAGCGATCCATG (double strand) [C/G fully-matched duplex]”, the Kd in data set [1] (Example 2, no nucleotide, text says binding not found) is 65500 nM; in data set [1] (Example 3-1, 1 mM ADP, binding described as sufficiently suppressed), 19800 nM.

B1: T/G mismatched duplex (dsDNA)
DNA 1: CCGCTGAATTGCACCGAGCTTGATCCTCGATGATCCTAAGCGATCCATG
DNA 2: CATGGATCGCTTAGGATCATCGAGGATCGAGCTCGGTGCAATTCAGCGG
Take B1: the Kd came out at 622 nM with Taq MutS [2]; 1450 nM with Aac MutS [3]; 330 nM in the data set with Aac MutS [4]; 2260 nM with Taq MutS [5] (label: 5'-biotin on T-strand, single G-T mismatch).

B2: C/G fully-matched duplex (dsDNA)
DNA 1: B1 DNA 1 with T21C
DNA 2: B1 DNA 2
B2: the Kd was found to be 2270 nM with Taq MutS [6] and 6580 nM in the data set with Taq MutS [5] (label: 5'-biotin on C-strand).
